Test results taken from article PMC8362844 (Molecular pharmaceutics, 2020).

Target: the molecule itself
Test: native gel or EMSA

B1: recombinant human alpha-N-acetylglucosamine-6-sulfatase with C-terminal c-myc tag (enzyme, UniProt P15586-1 37-552, looked up)
chain: VFGVAAGTRRPNVVLLLTDDQDEVLGGMTPLKKTKALIGEMGMTFSSAYVPSALCCPSRASILTGKYPHNHHVVNNTLEGNCSSKSWQKIQEPNTFPAILRSMCGYQTFFAGKYLNEYGAPDAGGLEHVPLGWSYWYALEKNSKYYNYTLSINGKARKHGENYSVDYLTDVLANVSLDFLDYKSNFEPFFMMIATPAPHSPWTAAPQYQKAFQNVFAPRNKNFNIHGTNKHWLIRQAKTPMTNSSIQFLDNAFRKRWQTLLSVDDLVEKLVKRLEFTGELNNTYIFYTSDNGYHTGQFSLPIDKRQLYEFDIKVPLLVRGPGIKPNQTSKMLVANIDLGPTILDIAGYDLNKTQMDGMSLLPILRGASNLTWRSDVLVEYQGEGRNVTDPTCPSLSPGVSQCFPDCVCEDAYNNTYACVRTMSALWNLQYCEFDDQEVFVEVYNLTADPDQITNIAKTIDPELLGKMNYRLMMLQSCSGPTCRTPGVFDPGYRFDPRLMFSNRGSVRTRRFSKHLL
modifications: N-glycosylated with high-mannose residues; mannose-6 phosphorylated at approximately 0.87% (W/W)
  stoichiometry N: 2
